Source: IntAct's records for PubMed 19966308

B1: Aquaporin-2 (Mus musculus), P56402 (parent)
chain: MWELRSIAFSRAVLAEFLATLLFVFFGLGSALQWASSPPSVLQIAVAFGLGIGTLVQALGHVSGAHINPAVTVACLVGCHVSFLRAAFYVAAQLLGAVAGAAILHEITPVEIRGDLAVNALHNNATAGQAVTVELFLTMQLVLCIFASTDERRSDNLGSPALSIGFSVTLGHLLGIYFTGCSMNPARSLAPAVVTGKFDDHWVFWIGPLVGAVIGSLLYNYLLFPSTKSLQERLAVLKGLEPDTDWEEREVRRRQSVELHSPQSLPRGSKA

Variants of: B1
Conditions: with anxa2_canlf ANXA2, Q6TEQ7
anxa2_canlf ANXA2, Q6TEQ7, sequence (Q6TEQ7 whole entry): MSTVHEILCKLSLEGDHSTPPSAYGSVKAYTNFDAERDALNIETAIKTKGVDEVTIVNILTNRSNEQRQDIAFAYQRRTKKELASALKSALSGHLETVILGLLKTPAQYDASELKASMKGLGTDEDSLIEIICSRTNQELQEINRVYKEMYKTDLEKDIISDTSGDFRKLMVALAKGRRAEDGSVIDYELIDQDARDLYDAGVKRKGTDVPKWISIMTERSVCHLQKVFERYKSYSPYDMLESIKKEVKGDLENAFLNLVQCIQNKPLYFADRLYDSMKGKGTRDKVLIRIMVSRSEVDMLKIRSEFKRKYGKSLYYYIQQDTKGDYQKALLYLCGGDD

Variant | effect of a mutation on the interaction
S256A | increasing interaction

Variants of: B1
Conditions: with hsp71_canlf HSPA1, Q7YQC6
hsp71_canlf HSPA1, Q7YQC6, sequence (Q7YQC6 whole entry): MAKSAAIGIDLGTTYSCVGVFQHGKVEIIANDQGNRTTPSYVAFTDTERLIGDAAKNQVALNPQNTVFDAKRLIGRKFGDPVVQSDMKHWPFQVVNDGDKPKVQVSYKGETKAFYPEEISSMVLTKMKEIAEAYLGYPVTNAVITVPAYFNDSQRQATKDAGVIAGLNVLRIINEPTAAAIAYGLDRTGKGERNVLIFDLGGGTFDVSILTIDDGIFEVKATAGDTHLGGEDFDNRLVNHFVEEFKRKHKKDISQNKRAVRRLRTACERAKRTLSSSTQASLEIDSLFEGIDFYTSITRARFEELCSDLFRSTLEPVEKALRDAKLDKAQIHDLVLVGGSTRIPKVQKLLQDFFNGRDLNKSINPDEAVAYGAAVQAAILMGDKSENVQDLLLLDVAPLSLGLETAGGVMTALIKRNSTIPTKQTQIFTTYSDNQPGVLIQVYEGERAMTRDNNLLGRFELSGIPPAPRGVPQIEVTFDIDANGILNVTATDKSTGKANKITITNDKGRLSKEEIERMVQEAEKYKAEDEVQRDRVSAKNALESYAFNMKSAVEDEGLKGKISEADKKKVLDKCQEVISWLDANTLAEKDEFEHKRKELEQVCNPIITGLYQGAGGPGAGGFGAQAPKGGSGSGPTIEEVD

Variant | effect of a mutation on the interaction
S269D | decreasing interaction
